# Experimental data from US20080233097A1, “Phosphorylation Site Of Mitogen-Activated Protein Kinases, Modified Proteins And Applications” (UNIVERSIDAD AUTONOMA DE MADRID, priority 2005, published 2008).
# Columns and labels:
# GRK2 = target: T1, GRK2 (Bos taurus, UniProt P21146); experiment: phosphorylation of p38 mutants and truncated proteins by GRK2 in vitro; type: biochemical; settings: GST fusion proteins, 30 minutes at 30° C.
# T1 construct: made in house; host or cells: Sf9 cells (baculovirus)
# T1 sequence (P21146 1-689): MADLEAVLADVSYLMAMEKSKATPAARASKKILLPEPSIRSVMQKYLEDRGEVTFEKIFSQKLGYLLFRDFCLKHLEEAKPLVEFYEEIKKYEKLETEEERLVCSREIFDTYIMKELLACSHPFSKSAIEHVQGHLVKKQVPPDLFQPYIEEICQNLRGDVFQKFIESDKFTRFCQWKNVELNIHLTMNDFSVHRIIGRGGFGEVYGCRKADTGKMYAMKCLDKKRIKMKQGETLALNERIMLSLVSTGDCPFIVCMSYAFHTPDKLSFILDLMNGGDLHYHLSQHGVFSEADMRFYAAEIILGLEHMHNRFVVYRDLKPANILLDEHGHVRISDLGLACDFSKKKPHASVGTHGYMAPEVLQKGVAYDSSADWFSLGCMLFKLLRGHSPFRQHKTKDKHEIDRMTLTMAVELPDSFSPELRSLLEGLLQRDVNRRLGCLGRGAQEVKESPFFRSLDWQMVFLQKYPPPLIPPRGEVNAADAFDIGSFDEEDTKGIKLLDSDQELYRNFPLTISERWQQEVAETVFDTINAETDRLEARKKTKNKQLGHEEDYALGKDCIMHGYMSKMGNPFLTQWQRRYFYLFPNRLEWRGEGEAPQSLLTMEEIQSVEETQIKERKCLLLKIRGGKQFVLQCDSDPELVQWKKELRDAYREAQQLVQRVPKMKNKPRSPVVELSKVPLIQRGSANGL
# Procedure: FIG. 6A: Proteins fused to GST (black rectangle in the protein schemes) were purified from bacteria transformed with the plasmids pGEX2T-p38α, pGEX4T-Mxi2 and pGEX4T-Mxi2Δ17: p38α, Mxi2 and Mxi2Δ17. The […] isoforms used as C-terminal truncated mutants for trying to limit the GRK2 phosphorylation site. […] Heparin (150 nM) was included as a specific GRK2 inhibitor. The reactions were stopped by adding SDS breaking buffer. The samples were resolved in 8% SDS-PAGE. For the purpose of assuring the inclusion of identical amounts of protein, they were first visualized in the gel by Coomassie Brilliant Blue (CBB) staining. Then the gel was dried and the radioactivity incorporated to the proteins (^32P) was detected. FIG. 6B: The truncated GST-280-360p38 protein, corresponding to the last 80 p38α amino acids, was generated by means of the Invitrogen Gateway system. Phosphorylation assays were carried out with Mxi2Δ17 as a p38 N-terminal, 280-360 p38 as C-terminal and with whole p38α in the same conditions as described in section A. The phosphorylation was detected by autoradiography (^32P) and controls of the amount of protein used in the assays were carried out concomitantly by Western blot with the anti-GST antibody. The presence of the GST-280-360p38 protein, which is not phosphorylated, is clearly observed. STD, mobility of standard molecular weight proteins.
# FIG. 9A: p38T123A and p38T123D proteins, fused to GST, were made by directed mutagenesis in the prokaryotic expression plasmids pGEX2T. The ability of the recombinant GST-p38T123A and GST-p38T123D proteins to be GRK2 substrates in comparison to the wild GST-p38WT protein and at the final concentrations indicated in the Figure was assayed. The upper panels represent the obtained phosphorylation (32 P) and the lower panels show, by anti-p38N WB, the amount of recombinant protein used in the assays. […]
# Heparin (150 nM) was included as a specific GRK2 inhibitor. […] Subsequently, the gel was dried and the radioactivity incorporated to the proteins (^32P) was detected. […]
# MKK6CAM = experiment: p38 activation by MKK6CAM in situ (anti-phospho-p38) in HEK293 cells; type: cell-based, human; settings: HEK293, 150 ng p38 plasmid, 50 ng pCDNA3-MKK6CAM
# Procedure: In overexpression experiments analogous to those described previously, HEK293 cells, seeded in M6 and always in duplicate, were transfected with: 150 ng of pCDNA3-Flag-p38α WT, or pCDNA3-Flag-p38α T123D and 50 ng of pCDNA3-MKK6CAM, (or empty pCDNA3). p38 activation with the anti-phospho-p38 antibody was evaluated. For each of the two isoforms, the activation by MKK6CAM was in reference to the baseline situation, obtaining a certain activation level. 100% activation was established as the p38α WT activation in each experiment. Data (±SEM) of three independent experiments are shown. A two-sided Student's-t test was carried out and *p<0.0001 was obtained. The right-hand side panels (Western blot) illustrate one of the experiments. […]
# The HE 293 cells, generally subjected to starvation (medium without serum) of a variable duration: 2 hours in the case of p38 and all night in the case of ERK, were stimulated and, after processing the lysate cells, the immunodetection of the phosphoproteins was carried out with the phospho-specific antibodies of the activation segments of both proteins. […] The quantification of the bands was carried out in a laser densitometer. In all the cases, the values obtained for the bands detected with the anti-phospho-protein antibody were normalized in relation to the total amount of p38 or ERK expressed in the cells. […]
molecule,measurement,setting,value
"p38T123D: p38α mutant; aspartic acid mimics the constitutively phosphorylated form of threonine 123 (protein, UniProt P47811 2-360, looked up, variant T123D, GST or Flag tag in some forms) Mitogen-activated protein …: SQERPTFYRQELNKTIWEVPERYQNLSPVGSGAYGSVCAAFDTKTGHRVAVKKLSRPFQSIIHAKRTYRELRLLKHMKHENVIGLLDVFTPARSLEEFNDVYLVTHLMGADLNNIVKCQKLDDDHVQFLIYQILRGLKYIHSADIIHRDLKPSNLAVNEDCELKILDFGLARHTDDEMTGYVATRWYRAPEIMLNWMHYNQTVDIWSVGCIMAELLTGRTLFPGTDHIDQLKLILRLVGTPGAELLKKISSESARNYIQSLAQMPKMNFANVFIGANPLAVDLLEKMLVLDSDKRITAAQALAHAYFAQYHDPDDEPVADPYDQSFESRDLLIDEWKSLTYDEVISFVPPPLDQEEMES",ability to be a GRK2 substrate (32P incorporation),GRK2,none of the two mutant is a GRK2 substrate
same,activation by MKK6CAM versus Flag-p38WT,MKK6CAM,considerable reduction
